Measured values taken from patent US20220267751A1 (MONASH UNIVERSITY, published 2022).

B1: recombinant plasmin (enzyme)
heavy: EPLDDYVNTQGASLFSVTKKQLGAGSIEECAAKCEEDEEFTCRAFQYHSKEQQCVIMAENRKSSIIIRMRDVVLFEKKVYLSECKTGNGKNYRGTMSKTKNGITCQKWSSTSPHRPRFSPATHPSEGLEENYCRNPDNDPQGPWCYTTDPEKRYDYCDILECEEECMHCSGENYDGKISKTMSGLECQAWDSQSPHAHGYIPSKFPNKNLKKNYCRNPDRELRPWCFTTDPNKRWELCDIPRCTTPPPSSGPTYQCLKGTGENYRGNVAVTVSGHTCQHWSAQTPHTHNRTPENFPCKNLDENYCRNPDGKRAPWCHTTNSQVRWEYCKIPSCDSSPVSTEQLAPTAPPELTPVVQDCYHGDGQSYRGTSSTTTTGKKCQSWSSMTPHRHQKTPENYPNAGLTMNYCRNPDADKGPWCFTTDPSVRWEYCNLKKCSGTEASVVAPPPVVLLPDVETPSEEDCMFGNGKGYRGKRATTVTGTPCQDWAAQEPHRHSIFTPETNPRAGLEKNYCRNPDGDVGGPWCYTTNPRKLYDYCDVPQCAAPSFDCGKPQVEPKKCPGR
light: VVGGCVAHPHSWPWQVSLRTRFGMHFCGGTLISPEWVLTAAHCLEKSPRPSSYKVILGAHQEVNLEPHVQEIEVSRLFLEPTRKDIALLKLSSPAVITDKVIPACLPSPNYVVADRTECFITGWGETQGTFGAGLLKEAQLPVIENKVCNRYEFLNGRVQSTELCAGHLAGGTDSCQGDSGGPLVCFEKDKYILQGVTSWGLGCARPNKPGVYVRVSRFVTWIEGVMRNN
notes: Made by cleaving rPlg with tPA; also called rPlm; recombinant Plm

Key:
[1] = biological target: T1, native plasmin (purchased from Haematologic Technologies) (UniProt P00747 97-580; P00747 581-810, limits assumed); experiment: SPR (Biacore T200), α2-AP on Ni2+-NTA chip, 1:1 Langmuir model
T1 construct: Plasmin has two disulphide-linked chains (heavy and light); also called native Plm

recombinant plasmin = biological target: B1; experiment: as above
recombinant plasminogen = biological target: T2, recombinant plasminogen (human, UniProt P00747 20-810); experiment: as above
T2 construct: also called rPlg; recombinant Plg

[2] = biological target: T3, native plasminogen (purchased from Merck, purified from human plasma) (human, UniProt P00747 20-810); experiment: SPR (Biacore T200), α2-AP on Ni2+-NTA chip, two-state reaction model; overall KD of the two-state reaction model
T3 construct: mature; also called native Plg; nPlg

[3] = biological target: T3, native plasminogen (purchased from …); experiment: SPR (Biacore T200), α2-AP on Ni2+-NTA chip, two-state reaction model, kd1; kd1, first step of the two-state model
[4] = biological target: T3, native plasminogen (purchased from …); experiment: SPR (Biacore T200), α2-AP on Ni2+-NTA chip, two-state reaction model, ka1; ka1, first step of the two-state model
[5] = biological target: T4, recombinant streptokinase from Streptococcus pyrogenes (so in the source) (Streptococcus pyrogenes (so in the source)); experiment: SPR (Biacore T200), SK on Ni2+-NTA chip, 1:1 Langmuir model
T4 construct: Immobilised on a Ni2+-NTA chip; also called SK

Binder | Kd [1] | koff [1] | kon [1] | Kd (recombinant plasmin) | koff (recombinant plasmin) | kon (recombinant plasmin) | Kd (recombinant plasminogen) | koff (recombinant plasminogen) | kon (recombinant plasminogen) | Kd [2] | koff [3] | kon [4] | Kd [5] | koff [5] | kon [5]
recombinant alpha 2-antiplasmin (other, UniProt P08697 40-491, looked up, Serpin, immobilised on a Ni2+-NTA chip; also called α2-AP; α2AP) NQEQVSPLTLLKLGNQEPGGQTALKSPPGVCSRDPTPEQTHRLARAMMAFTADLFSLVAQTSTCPNLILSPLSVALALSHLALGAQNHTLQRLQQVLHAGSGPCLPHLLSRLCQDLGPGAFRLAARMYLQKGFPIKEDFLEQSEQLFGAKPVSLTGKQEDDLANINQWVKEATEGKIQEFLSGLPEDTVLLLLNAIHFQGFWRNKFDPSLTQRDSFHLDEQFTVPVEMMQARTYPLRWFLLEQPEIQVAHFPFKNNMSFVVLVPTHFEWNVSQVLANLSWDTLHPPLVWERPTKVRLPKLYLKHQMDLVATLSQLGLQELFQAPDLRGISEQSLVVSGVQHQSTLELSEVGVEAAAATSIAMSRMSLSSFSVNRPFLFFIFEDTTGLPLFVGSVRNPNPSAPRELKEQQDSPGNKDFLQSLKGFPRGDKLFGPDLKLVPPMEEDYPQFGSPK | 0.85 nM | 0.0043 s⁻¹ | 5.1e+06 M⁻¹ s⁻¹ | 0.68 nM | 0.00011 s⁻¹ | 160000 M⁻¹ s⁻¹ | 3.4 nM | 0.0005 s⁻¹ | 150000 M⁻¹ s⁻¹ | 9.8 nM | 0.065 s⁻¹ | 1.1e+06 M⁻¹ s⁻¹ | – | – | –
B1 | – | – | – | – | – | – | – | – | – | – | – | – | 0.04 nM | 1.6e-05 s⁻¹ | 410000 M⁻¹ s⁻¹
